Reference: patent US20130171153A1 (TRANSBIO, published 2013)
Values belong to the binder of their own block, whether it stands above or below them.

What was measured:
mouse PI16 = biological target: T1, mouse PI16 (mouse, UniProt Q9ET66 30-498, limits assumed); test: not described
T1 construct: also called Mus musculus PI16
T1 sequence: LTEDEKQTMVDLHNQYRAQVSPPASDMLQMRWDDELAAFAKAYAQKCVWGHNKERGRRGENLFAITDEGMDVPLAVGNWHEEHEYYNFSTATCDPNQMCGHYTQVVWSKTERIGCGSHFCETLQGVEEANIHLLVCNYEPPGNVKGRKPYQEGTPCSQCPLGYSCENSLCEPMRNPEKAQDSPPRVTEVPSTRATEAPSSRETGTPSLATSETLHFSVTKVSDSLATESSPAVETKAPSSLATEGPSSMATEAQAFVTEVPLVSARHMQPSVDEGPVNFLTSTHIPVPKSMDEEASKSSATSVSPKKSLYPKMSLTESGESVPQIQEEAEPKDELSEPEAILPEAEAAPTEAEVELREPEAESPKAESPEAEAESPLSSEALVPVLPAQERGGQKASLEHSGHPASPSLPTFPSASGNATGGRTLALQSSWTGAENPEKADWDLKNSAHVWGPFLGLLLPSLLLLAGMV

[1] = biological target: T2, Abnova recombinant PI16 protein (expressed using a wheat germ cell free system) (UniProt Q6UXB8 1-463, limits assumed); test: slot blot
T2 construct: Bought product; also called Rec. protein Abnova; Abnova recombinant protein
T2 sequence (looked up): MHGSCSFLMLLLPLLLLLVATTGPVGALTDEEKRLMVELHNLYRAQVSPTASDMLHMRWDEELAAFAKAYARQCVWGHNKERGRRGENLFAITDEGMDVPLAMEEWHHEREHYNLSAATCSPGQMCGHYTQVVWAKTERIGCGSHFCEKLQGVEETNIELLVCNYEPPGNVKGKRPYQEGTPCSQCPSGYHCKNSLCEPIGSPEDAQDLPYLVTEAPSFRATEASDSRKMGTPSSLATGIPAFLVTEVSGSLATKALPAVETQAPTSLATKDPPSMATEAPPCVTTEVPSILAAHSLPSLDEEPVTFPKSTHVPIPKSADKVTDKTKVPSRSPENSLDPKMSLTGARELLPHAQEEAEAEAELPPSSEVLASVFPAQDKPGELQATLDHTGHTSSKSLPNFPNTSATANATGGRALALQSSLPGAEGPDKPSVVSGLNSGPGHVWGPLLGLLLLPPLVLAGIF
Procedure: 100 μl of samples (as indicated) were loaded into each slot onto nitrocellulose membrane (Protran; Schleicher & Schuell) under vacuum. After loading, the blot was blocked for 1 hour at RT with 3% skim milk powder (Diploma) in PBS Tween 0.05% (block buffer). The primary Ab (secreted by CRCBT-02-001 or the polyclonal PI16 antibody from Abnova) was diluted in block buffer one in two and incubated on a platform rocker for 1 hour at RT. The blot was washed 3×5 minutes with PBS tween. Biotinylated horse anti mouse (Vector) 1/1000 diluted in block buffer was added and incubated for one hour at RT on rocking platform. The blot was washed 3×5 minutes with PBS tween. A dilution of 1/1000 SA:HRP (GE Healthcare) in block buffer was added and incubated for one hour at RT on rocking platform. The blot was washed 3×5 minutes with PBS tween. An appropriate volume of ECL solutions A and B (enough to cover membrane surface; ECL Advance Western Blotting Kit, GE Healthcare) was added and incubated for one minute with constant shaking. The blot was read immediately in a G:Box (Syngene) upon 15 seconds UV-exposure.
To determine the protein to which the monoclonal antibody binds, slot blots were performed.

[2] = biological target: T3, fragment of PI16 expressed by phage clone 4 (round 3) (human); test: phage ELISA of PI16 gene fragment clones
T3 construct: also called R3 4
T3 chain: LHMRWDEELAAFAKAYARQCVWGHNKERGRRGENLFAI

[3] = biological target: T4, fragment of PI16 expressed by phage clone 7 (round 3) (human); test: phage ELISA of PI16 gene fragment clones
T4 construct: also called R3 7
T4 chain: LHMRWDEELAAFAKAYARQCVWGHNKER

[4] = biological target: T5, fragment of PI16 expressed by phage clone 10 (round 3) (human); test: phage ELISA of PI16 gene fragment clones
T5 construct: also called R3 10
T5 chain: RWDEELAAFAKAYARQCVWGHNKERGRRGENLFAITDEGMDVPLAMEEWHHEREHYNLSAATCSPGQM

[5] = biological target: T6, fragment of PI16 expressed by phage clone 12 (round 3) (human); test: phage ELISA of PI16 gene fragment clones
T6 construct: also called R3 12
T6 chain: LHMRWDEELAAFAKAYARQ

[6] = biological target: T7, fragment of PI16 expressed by phage clone 15 (round 3) (human); test: phage ELISA of PI16 gene fragment clones
T7 construct: also called R3 15
T7 chain: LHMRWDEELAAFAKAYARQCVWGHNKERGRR

[7] = biological target: T8, PI16-Fc (extracellular domain of human PI16, aa 28-443, tev-protease cleavage site, C-terminal human Fc) (human, UniProt P01857-1 104-330 = IgG part); test: SPR (ProteOn XPR36), mAb captured by anti-mouse IgG on GLM chip, PI16-Fc as analyte, Langmuir global fit
T8 construct: domain: Fc; also called recombinant PI16-Fc; native PI16-Fc; not shown: tev-protease cleavage site
T8 sequence (P01857 other isoform, or with tags, fused parts or gaps): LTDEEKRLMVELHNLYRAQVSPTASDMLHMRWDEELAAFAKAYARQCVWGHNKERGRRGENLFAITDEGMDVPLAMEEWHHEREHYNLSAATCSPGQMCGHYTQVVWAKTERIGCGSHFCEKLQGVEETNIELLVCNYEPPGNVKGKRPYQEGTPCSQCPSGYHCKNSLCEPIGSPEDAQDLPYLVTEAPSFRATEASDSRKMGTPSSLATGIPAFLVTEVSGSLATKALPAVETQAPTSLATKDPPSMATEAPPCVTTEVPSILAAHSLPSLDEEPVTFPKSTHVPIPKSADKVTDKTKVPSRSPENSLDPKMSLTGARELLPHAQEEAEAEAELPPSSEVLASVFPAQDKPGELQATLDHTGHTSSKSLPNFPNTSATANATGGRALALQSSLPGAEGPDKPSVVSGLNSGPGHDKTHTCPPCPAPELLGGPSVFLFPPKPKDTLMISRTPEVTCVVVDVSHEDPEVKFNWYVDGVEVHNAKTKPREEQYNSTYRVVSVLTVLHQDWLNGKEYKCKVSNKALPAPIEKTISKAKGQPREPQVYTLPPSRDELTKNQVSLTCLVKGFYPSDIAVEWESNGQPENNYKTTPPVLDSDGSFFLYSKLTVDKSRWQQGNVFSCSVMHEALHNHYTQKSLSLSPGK
Procedure: A proteOn sensor chip (GLM) was activated by flowing a mixture of 0.2 M EDC and 0.05 M sulpho-NHS over the chip ([…] at 30 μL/min for 5 minutes). Rabbit anti-mouse IgG whole molecule (Sigma M-7023) was then coupled to the chip in the vertical orientation by flowing 150 μL of a 50 μg/mL solution in 10 mM acetate buffer (pH 4.5) at 30 μL/min. The remaining coupling sites were then deactivated by flowing 150 μL of 1 M ethanolamine-HCl (pH 8.5) at 30 μL/min. Mouse monoclonal anti PI16 IgG was then allowed to flow over and be captured by the coupled anti-mouse IgG antibody by flowing 150 μL of 100 μg/mL IgG at 25 μL/min over a single channel of the sensor chip in the horizontal direction. […] PBS Tween 20 (0.005%) alone was passed over the remaining channel and served as a reference. Binding sensorgrams were collected and analysed with the ProteOn Manager 2.1×PR36 software using the Langmuir kinetic model to fit the data and determine the affinity constant (KD).
The published method (Nahshol et al., 2008) was used to measure the kinetics of the PI16 mab by anti-mouse capture. This is a relatively mild method coupling method and the association and dissociation curves and affinity measurement was performed with 4 dilutions of the PI16-Fc (FIG. 43 and Table 9). The data fitted well to a Langmuir kinetic model using global fit (all the curves fitted simultaneously).

[8] = biological target: T8, PI16-Fc (extracellular domain of human …); test: SPR (ProteOn XPR36), PI16-Fc amine-coupled to GLC chip, Fab as analyte, Langmuir global fit
Procedure: A ProteOn sensor chip (GLC) was activated by flowing a mixture of 0.2 M N-ethyl-N′-(3-dimethylaminopropyl) carbodiimide (EDC) and 0.05 M sulfo-N-hydroxysuccinimide (sulfo-NHS) over the chip (150 μL at 30 μL/min for 5 minutes). Recombinant PI16-Fc was coupled to the chip in the vertical orientation by flowing 150 μL of a 50 μg/mL solution in 10 mM acetate buffer (pH 4.5) at 30 μL/min. The remaining activated carboxyl group were then deactivated by flowing 150 μL of 1 M ethanolamine-HCl (pH 8.5) at 30 μL/min. […] PBS Tween 20 (0.005%) alone was passed over the remaining channel. Binding sensorgrams were collected and analysed with the ProteOn Manager 2.1×PR36 software using the Langmuir kinetic model to fit the data and determine the affinity constant (KD).
This coupling method was performed using various pHs to optimise the coupling of PI16-Fc to the GLC chip. The optimal coupling pH was 4.5. The association and dissociation curves and affinity measurement was performed with 3 dilutions of the PI16 Fab shown in FIG. 42 and Table 8. The data fitted well to a Langmuir kinetic model using global fit (all the curves fitted simultaneously).

binding result (mouse PI16): no binding
binding result [1]: no binding
binding result [2]: binds
binding result [3]: binds
binding result [4]: binds
binding result [5]: binds
binding result [6]: binds
Kd [7]: 2.56 nM
koff [7]: 0.000149 s⁻¹
kon [7]: 58200 M⁻¹ s⁻¹
B1: antibody produced by the hybridoma designated CRCBT-02-001 (ATCC PTA-10685) (antibody, V domains shown)
VH: FGGGLVQPGGSMKLSCVASGFTFSYYWMNWVRQSPEQGLEWIAEIRLQSNDYPTHYAESVKGRFTISRDDSKNSVYLQMNNLRPEDTGIYYCACRYADYFDHWGQGTTLTVSS
VL: VMTQSPAILSVYPGEKVTMTCRASLSVSYMHWCQQKPGSSPKSWIYATSNLASGVPARFSGSGSGTSYSLTISRVEAEDAATYYCQQWSSNPFTFGSGTKLEIKR
notes: constant regions are not; Used as hybridoma supernatant or as Protein G purified antibody; also called CRCBT-002-001; P1G5-P2B3

Kd [8]: 1.25 nM
koff [8]: 0.000372 s⁻¹
kon [8]: 297000 M⁻¹ s⁻¹
B2: CRCBT-02-001 Fab (Fab, V domains shown)
VH: B1 VH
VL: B1 VL
notes: also called PI16 Fab; Anti-PI16 Fab fragment
